PMC3192115, “Analysis of RNA Binding by the Dengue Virus NS5 RNA Capping Enzyme”
“And” between values parts separate entries of the source, which are not always exact repeats. Equal entries are not always repeated.

Legend:
[1] = target: T1, NS5 capping enzyme WT (West Nile) (West Nile virus) (UniProt Q9Q6P4); assay: fluorescence polarization; conditions: 5' diphosphate
T1 sequence: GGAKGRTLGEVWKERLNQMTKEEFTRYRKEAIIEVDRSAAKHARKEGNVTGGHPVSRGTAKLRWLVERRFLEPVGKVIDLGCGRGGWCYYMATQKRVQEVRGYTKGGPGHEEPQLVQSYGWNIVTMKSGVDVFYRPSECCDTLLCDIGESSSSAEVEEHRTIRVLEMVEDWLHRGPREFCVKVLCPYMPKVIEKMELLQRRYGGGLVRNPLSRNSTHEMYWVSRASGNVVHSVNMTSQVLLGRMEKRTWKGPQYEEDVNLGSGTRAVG

[2] = target: T2, NS5 N-terminal capping enzyme WT (dengue 2) (Dengue virus type 2, UniProt P29990 2492-2758); assay: fluorescence polarization; conditions: protein: recombinant; tags: His; label: 3' FAM
[3] = target: NS5 capping enzyme WT (yellow fever) (Yellow fever virus, UniProt P03314 2507-2774); assay: fluorescence polarization; conditions: protein: recombinant; label: 3' FAM
[4] = target: T2, NS5 N-terminal capping enzyme WT …; assay: fluorescence polarization; mock control for GTP experiment; conditions: protein: recombinant; tags: His; label: 3' FAM
[5] = target: T2, NS5 N-terminal capping enzyme WT …; assay: fluorescence polarization; Table 1 gives 3.7 uM, SD 217 nM; conditions: protein: recombinant; tags: His; label: 3' FAM

T2 sequence (P29990 2492-2758): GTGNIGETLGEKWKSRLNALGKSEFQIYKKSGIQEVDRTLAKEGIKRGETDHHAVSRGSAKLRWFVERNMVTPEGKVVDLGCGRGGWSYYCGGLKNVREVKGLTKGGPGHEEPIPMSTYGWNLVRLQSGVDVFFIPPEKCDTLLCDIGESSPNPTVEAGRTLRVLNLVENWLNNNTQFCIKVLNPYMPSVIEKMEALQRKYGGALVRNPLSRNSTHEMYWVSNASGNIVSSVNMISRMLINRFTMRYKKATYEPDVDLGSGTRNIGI
NS5 capping enzyme WT (yellow fever), sequence (P03314 2507-2774): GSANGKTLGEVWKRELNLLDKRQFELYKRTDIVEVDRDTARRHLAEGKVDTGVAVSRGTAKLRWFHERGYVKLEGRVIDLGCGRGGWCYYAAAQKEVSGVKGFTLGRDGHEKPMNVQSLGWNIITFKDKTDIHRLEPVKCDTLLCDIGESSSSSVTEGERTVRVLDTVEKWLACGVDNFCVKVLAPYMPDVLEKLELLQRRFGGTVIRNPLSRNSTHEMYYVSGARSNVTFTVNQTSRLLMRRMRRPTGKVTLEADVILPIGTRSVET

AGUAA [ppAGUAA-FAM]
Kd [1]: 0.136 µM

AGUAA (ssRNA, 5' diphosphate) [ppAGUAA-FAM]
Kd [2]: 0.187 µM and ~0.2 µM
Kd [3]: 0.42 ± 0.02 µM

AGUAA (ssRNA, 5' monophosphate) [pAGUAA-FAM]
Kd [2]: 0.967 ± 0.088 µM

AGUAA (ssRNA, no 5' phosphate) [AGUAA-FAM]
Kd [4]: 3.5 µM
Kd [5]: 3.8 ± 0.2 µM
